# Measured values taken from publication PMC10804683, “Identification of the pyridoxal 5′‐phosphate allosteric site in human pyridox(am)ine 5′‐phosphate oxidase” (Protein Science : A Publication of the Protein Society, 2024).
# Substrate: Cc1ncc(COP(=O)(O)O)c(CN)c1O
# Assay: purified protein, by the assay type
# Conditions: other: F48A, 50 mM Tris–HCl pH 7.6, 37°C, 2 μM enzyme
protein,measurement,value
human PNPO F48A variant (Homo sapiens; F48A) (protein) MTCWLRGVTATFGRPAEWPGYLSHLCGRSAAMDLGPMRKSYRGDREAAEETHLTSLDPVKQFAAWFEEAVQCPDIGEANAMCLATCTRDGKPSARMLLLKGFGKDGFRFFTNFESRKGKELDSNPFASLVFYWEPLNRQVRVEGPVKKLPEEEAECYFHSRPKSSQIGAVVSHQSSVIPDREYLRKKNEELEQLYQDQEVPKPKSWGGYVLYPQVMEFWQGQTNRLHDRIVFRRGLPTGDSPLGPMTHRGEEDWLYERLAP,Km,100 ± 5 µM
same,kcat,0.1785 ± 0.003 s⁻¹
